Measurements taken from patent publication US20240400689A1 (ANTENGENE BIOLOGICS, published 2024).
Changes are numbered by the printed parent chain.

T1: human CD276 protein (human, UniProt Q5ZPR3 29-534)
T1 construct: whole, on cells; for SKOV3 and the other cancer lines the protein is the cells' own; also called B7-H3; B7H3
T1 sequence (looked up): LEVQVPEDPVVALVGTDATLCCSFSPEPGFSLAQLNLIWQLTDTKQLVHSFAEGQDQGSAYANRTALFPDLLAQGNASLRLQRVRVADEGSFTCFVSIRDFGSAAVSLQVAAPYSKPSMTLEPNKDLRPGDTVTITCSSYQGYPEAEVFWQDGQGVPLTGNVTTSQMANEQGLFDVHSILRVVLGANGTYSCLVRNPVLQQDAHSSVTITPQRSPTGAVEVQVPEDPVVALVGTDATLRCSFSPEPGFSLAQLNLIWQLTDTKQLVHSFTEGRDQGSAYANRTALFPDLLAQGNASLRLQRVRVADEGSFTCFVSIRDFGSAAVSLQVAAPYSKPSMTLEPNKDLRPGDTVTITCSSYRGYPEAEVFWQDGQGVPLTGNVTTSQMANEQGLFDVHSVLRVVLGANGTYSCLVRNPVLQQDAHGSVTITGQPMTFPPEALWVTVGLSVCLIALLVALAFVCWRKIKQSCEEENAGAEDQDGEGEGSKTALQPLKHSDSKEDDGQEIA

T2: mouse CD276 protein (mouse, UniProt Q8VE98 29-316)
T2 construct: whole, on cells; also called mCD276; CHO-S-mCD276
T2 sequence (looked up): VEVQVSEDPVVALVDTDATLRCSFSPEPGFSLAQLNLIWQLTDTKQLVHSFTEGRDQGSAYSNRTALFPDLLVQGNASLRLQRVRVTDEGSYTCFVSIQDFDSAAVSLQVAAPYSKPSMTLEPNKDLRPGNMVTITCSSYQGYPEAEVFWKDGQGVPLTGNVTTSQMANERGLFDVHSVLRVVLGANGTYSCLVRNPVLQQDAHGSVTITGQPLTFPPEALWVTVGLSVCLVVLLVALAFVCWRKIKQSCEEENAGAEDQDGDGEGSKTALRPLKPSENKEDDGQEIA

B1: 4-D5-B9-B11 (antibody, V domains shown)
VH: EIGGLVKPGGSLKFSCAASGFTFSSYAMSWVRQTPEKRLEWVATISGGGIYYPDSVKGRFTISRDNAKNTLYLQMSSLRSEDTAMYYCARQGSKGWDAMDYWGQGTSVTVSS
VL: QIVLTQSPAIMSASPGEKVTMTCRASSSVSFMHWYQQKSGTSPKRWIYETSKLASGVPDRFSGSGSGTSYSLTISSMEAEDAATYYCQQWSSNPLTFGAGTKLELK
notes: mouse monoclonal antibody (hybridoma)
B2: 3-C2-C3-E7 (antibody, V domains shown)
VH: EVQLQQSGPELVKPGASVKISCKTSGYTFTENTMHWVKQSHGKRLEWIGGINPNTGGTTYNQKFKGKATLTVDKSSSTAYMELRSLTSEDSAVYYCARRGTNWEHWYFDVWGAGTTVTVSS
VL: B1 VL with R24S, F31Y, E49D, D59A
notes: as for B1
B3: 6-H11-G5-D8 (antibody, V domains shown)
VH: EVQLQESGPELVKPGTSVKLSCKASGYTFTSYDINWVRQRPEQGLEWIGWIFPGNGDTYYNEKFKGKATLTSDKSSSTAYMQLSRLTSEDSAVYFCARDLRLGTFDYWGQGTTLTVSS
VL: B1 VL with A9E, R24S, F31Y, M32I, E49D, D59A, S75R, W90G, L95R, A99G
notes: as for B1
B4: 27-F8-E10-E11 (antibody, V domains shown)
VH: EVQLQQSGPELVKPGASVKISCKTSGYTFTEYAMHWVKQSHGKILEWIGGINPNIGGTTYNQKFKDKATLTVDKSSSTASMELRSLTSEDSAVYYCARFLVPSTEGFTYWGQGTLVTVSA
VL: B1 VL with R24S, F31Y, E49D, K52R, L53V, D59A
notes: as for B1
B5: 3-G7-D8-D3 (antibody, V domains shown)
VH: QVQLQQSGAELARPGTSVKLSCKASGYTFTTYWIQWVKQRPGQGLEWIGAIYPGDGDTRYTQKFKGKATLTADKSSSTAYMQLSTLASEDSAVYYCARPYDGYYIDYPMDSWGQGTSVTVSS
VL: QIVLTQSPAIMSASPGEKVTMTCSASSRINYMHWYQQKPGTSPIIWIYDTSKLASGVPARFSGSGSGTSYSLTISSMEAEDAATYYCHQRSSYPFTFGSGTKLEIK
notes: as for B1
B6: 13-A8-C4-G1 (antibody, V domains shown)
VH: QVQLQQPGAELVKPGASMKLSCKASGYIFTSNWMHWVKQRPGQGLEWIGMIHPNSGTTSYNEKFKNKAKLTVDKSSSTAYVQLSSLTSEDSAVYYCAGPTTTRRFYPMDYWGQGTSVTVSS
VL: QAVVTQESALTTSPGETVTLTCRSSTGAVTTSNYANWVQEKPDHLFTGLIGGTNNRAPGVPARFSGSLIGDKAALTITGAQTEDEAIYFCALWYSNHFIFGSGTKVTVL
notes: as for B1
B7: 6-F3-G2-G1 (antibody, V domains shown)
VH: QVQLQQPGAELVKPGASVKLSCKASDYTFTNYWMHWVKQRPGQGLEWIGMIHPNSGTTSYNEKFKNKATLTVDTSSATTYMHLSSLTSEDSAVYYCASHYGNSYSAMDYWGQGTSVTVSS
VL: B6 VL with E16G, T19I, N54S, A62V, E85D, I87M, N96T, F98Y, I99V, S102G
notes: as for B1
B8: 15-C8-B5-G7 (antibody, V domains shown)
VH: QVQLQQPGAELVKPGASVKLSCKASDYTFTSHWMHWVKQRPGQGLEWIGMIHPNSGTTHYNENFKNKATLTVDNSSSTAYMQLSSLTSEDSAVYYCAWGSSNSYFYAMAYWGQGTSVTVSS
VL: B6 VL with D43A, Y94F, F98L, I99V, S102G, V106L
notes: as for B1
B9: 14-E7-G9-D4 (antibody, V domains shown)
VH: EVQLQQSGPELVKPGASVKMSCKASGYTFTNYIMHWVKQKPGQGLEWIGYINPYNDGIKYNEKFKGKATLTSDKSSSTAYMELSSLTSEDSAVYYCTRWGNYVFYYTMDYWGQGTSVTVSS
VL: QIVLSQSPAILSASPGEKVTMTCRASSSVSYMHWYQQKPGSSPKPWIYATSNLASGVPARFSGSGSGTSYSLTISRMEAEDAATYYCQQWSGNPPLTFGAGTKLELK
notes: as for B1
B10: 28-G2-E6-B10 (antibody, V domains shown)
VH: QVQLQQPGAELVKPGASVKLSCKASGYTFTSYWMHWVKQRPGQGLEWIGMIHPNSDTTDYNEKFKTKATLTVDKSSSTAYMQLSSLTSEDSAVFYCARGGLGPHYFVYWGQGTTLTVSS
VL: QAVVTQESALTTSPGGTVILTCRSSTGAVTTSNYASWVQEKPDHLFTGLIGGTSNRAPGVPVRFSGSLIGDKAALTITGAQTEDDAMYFCALWYSPHYVFGGGTKVTVL
notes: as for B1
B11: 25-D3-G4-C6 (antibody, V domains shown)
VH: EIQLQQTGPELVKPGASVKISCKASGYSFTDYIILWVKQSHGMSLEWIGNINPYYNSTYYNLKFKGKATLTVDKSSSTAYMQLDSLTSEDSAVYYCARDSFDWYFGVWGAGTTVTVSS
VL: DVVMTQTPLSLPVSLGDQASISCRSSQSLVHSNGNTYLHWYLQKPGQSPKLLIYKVSNRFSGVPDRFSGSGSGTDFTLKISRVETEDLGIYFCSQSTHVPPLTFGAGTKLELK
notes: as for B1
B12: 7-E1-F8-F6 (antibody, V domains shown)
VH: QVQLQQSGPELVKPGASVQMSCKASGYTFTDYVISWVNQRTGQGLEWIGEIYPRSGNTYYNEKFKGKATLTADKSSNTAYMQLSSLTSEDSAVYFCARFDIAYSFDYWGQGTTLTVSS
VL: DVVMTQTPLSLPVSLGDQASISCRSTQSLVHSNGVTYLHWYLQKPGQSPKLLIYKVSNRFSGVPDRFSGSGSGTDFTLKISRVEAEDLGVYFCSQGTHVPWTFGGGTKLEIK
notes: as for B1
B13: 9-G2-H6-E4 (antibody, V domains shown)
VH: EVQLQQSGPDLVKPGASVKISCKASGYSFTGYFMNWVKQRHGKSLEWIGYINPNNGDTIYNQKFKGKATLTVDKSSSTAHMELLSLTSEDSAVYYCGRGGLPFGALDYWGQGTSVTVSS
VL: DIVMSQSPSSLAVSVGEKVNMSCKSSQSLLYSRNQKNYLAWNQQKPGQSPKLLIYWASARESGVPDRFTGSGSGTDFTLTISSVKAEDLAAYYCQQYHSYPYTFGGGTKLELK
notes: as for B1
B14: 9-E8-F9-C10 (antibody, V domains shown)
VH: EVQLQQSGAELVRPGTSVKISCKASGYAFSDYWLSWVKQRPGHGLEWIGDICPGSGNIYYNERFKDKVILTADRSSSTAYLQFSSLTSEDSVVYFCTRLITRVIDYWGQGTSVTVST
VL: ENVLTQSPAIMSASPGEKVTMTCSASSSVNYMHWYQQKSSTSPKLWIYDTSKLSSGVPGRFSGSGSGNSYSLTISSMEAEDVATYYCFQGSGYPLTFGAGTKLELK
notes: as for B1

biological target: T1, human CD276 protein; assay: FACS on CHO-S-hCD276 cells
Procedure: (§1) Screening & Expansion—The subcloning plates were screened by protein or cell-based Elisa, and the subclones with good binding ability were expanded to 24-wells for confirmation tests. The specificity and cross-reactivity of these subclones were confirmed with FACS analysis. Briefly, parental CHO-S cells, CHO-S-hCD276, CHO-S cell line stably over-expressing Macaca fascicularis CD276, CHO-K1 S, cell line stably over-expressing mouse CD276 were incubated with antibodies produced by each subclone respectively. Fluorescent dye-conjugated secondary antibody was used to detect the binding of the primary antibody with the cells. Median fluorescence intensity was measured by FACS analysis.

| FACS MFI | Binder |
| --- | --- |
| 145000 | B1 |
| 38800 | B2 |
| 113000 | B3 |
| 16000 | B4 |
| 82400 | B5 |
| 54100 | B6 |
| 37400 | B7 |
| 36600 | B8 |
| 78100 | B9 |
| 56300 | B10 |
| 5940 | B11 |
| 6990 | B12 |
| 49600 | B13 |
| 7610 | B14 |

biological target: T3, Macaca fascicularis CD276 (Macaca fascicularis); assay: FACS on CHO-S-cynoCD276 cells
T3 construct: whole, on cells; also called cynomolgus monkey CD276; cynoCD276
Procedure: as §1

| FACS MFI | Binder |
| --- | --- |
| 148000 | B1 |
| 2110 | B2 |
| 30400 | B3 |
| 80500 | B4 |
| 6420 | B5 |
| 95800 | B6 |
| 114000 | B7 |
| 43000 | B8 |
| 61800 | B9 |
| 40800 | B10 |
| 5390 | B11 |
| 5590 | B12 |
| 5400 | B13 |
| 5700 | B14 |

biological target: T2, mouse CD276 protein; assay: FACS on CHO-S-mCD276 cells
Procedure: as §1

| FACS MFI | Binder |
| --- | --- |
| 2100 | B1 |
| 2770 | B2 |
| 1360 | B3 |
| 1350 | B4 |
| 1290 | B5 |
| 6200 | B6 |
| 6980 | B7 |
| 5730 | B8 |
| 1300 | B9 |
| 2080 | B10 |
| 1370 | B11 |
| 1310 | B12 |
| 27600 | B13 |
| 1950 | B14 |
